For this assay, the target named is truncated neck domain fragment of DC-SIGNR (neck lacking the N-terminal non-repeat region and the first half of the first repeat unit) (human). The assay is described as follows: SEC; gel filtration of the purified truncated fragment; profile superimposed on that of the previously described DC-SIGN extracellular domain. (In general: SEC sorts molecules by how far they enter the pores of the column.)

This is an account of results in PMC2971551.

The stoichiometry N is the number of molecules, sites or subunits per partner or assembly. On to “truncated neck domain fragment of DC-SIGNR (neck lacking the N-terminal non-repeat region and the first half of the first repeat unit) (domain or fragment)”, for which the stoichiometry N was determined as 4.
